The source of these data is patent US20240116985A1 (published 2024).

Starred links: 1 amine or outer side, 2 acyl side, 3 side chain; linkers in the order of their positions; H or OH if unused. Positions of bridges follow the written chain, without caps; N, C: chain ends. Non-standard residues stand in square brackets, D forms with d. Primed or numbered codes have the meaning given here. PyrS2″ = (S)-3-amino-1-((pent-4-en-1-yloxy)carbonyl)pyrrolidine-3-carboxylic acid (stapling residue), C=CCCCOC(=O)N1CC[C@@](N[*:1])(C(=O)[*:2])C1; TfeGA = (S)-2-amino-3-((carboxymethyl)(2,2,2-trifluoroethyl)amino)propanoic acid, O=C([C@H](CN(CC(=O)[*:3])CC(F)(F)F)N[*:1])[*:2]; TriAzDap = Dap whose side chain is a 1H-1,2,3-triazol-1-yl bearing the bracketed 4-substituent; B5(3) = 2,2-bis(4-pentenyl)glycine (stitching residue), C=CCCCC(CCCC=C)(N[*:1])C(=O)[*:2]; Phe(2-CF3) = N[C@@H](Cc1ccccc1C(F)(F)F)C(=O)O; Phe(2-Cl) = N[C@@H](Cc1ccccc1Cl)C(=O)O; Bta = N[C@@H](Cc1csc2ccccc12)C(=O)O; αAllylPro = C=CC[C@@]1(C(=O)O)CCCN1; tBuAla = CC(C)(C)C[C@H](N)C(=O)O; S8 = C=CCCCCCC[C@](C)(N)C(=O)O; hSer = N[C@@H](CCO)C(=O)O

Assay [1] addresses T1, beta-catenin in DLD1 TCF/LEF luciferase reporter cells (UniProt P35222 1-781).
T1 sequence (looked up): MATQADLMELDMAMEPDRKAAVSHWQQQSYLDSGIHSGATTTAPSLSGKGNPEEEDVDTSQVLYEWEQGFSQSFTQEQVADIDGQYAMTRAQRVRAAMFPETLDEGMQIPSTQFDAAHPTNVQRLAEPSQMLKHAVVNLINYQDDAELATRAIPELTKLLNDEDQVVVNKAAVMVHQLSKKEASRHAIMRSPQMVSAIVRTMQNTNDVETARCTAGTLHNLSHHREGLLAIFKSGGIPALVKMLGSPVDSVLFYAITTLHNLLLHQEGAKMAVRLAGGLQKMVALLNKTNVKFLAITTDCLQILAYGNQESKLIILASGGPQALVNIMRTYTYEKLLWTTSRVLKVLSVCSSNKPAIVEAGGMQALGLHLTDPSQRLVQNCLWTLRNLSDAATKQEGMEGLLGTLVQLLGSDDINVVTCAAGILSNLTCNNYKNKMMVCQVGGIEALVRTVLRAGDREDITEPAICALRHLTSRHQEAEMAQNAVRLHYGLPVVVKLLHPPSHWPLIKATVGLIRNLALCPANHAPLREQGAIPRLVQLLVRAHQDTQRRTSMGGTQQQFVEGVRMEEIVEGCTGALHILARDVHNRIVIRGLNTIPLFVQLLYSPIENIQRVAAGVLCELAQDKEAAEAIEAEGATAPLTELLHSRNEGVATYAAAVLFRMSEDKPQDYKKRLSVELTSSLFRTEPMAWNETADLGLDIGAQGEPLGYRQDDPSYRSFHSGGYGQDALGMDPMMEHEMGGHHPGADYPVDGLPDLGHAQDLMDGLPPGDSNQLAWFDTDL
The experiment in a line: cell-based or functional assay.

A further assay deals with T2, B-cat-Halo (UniProt P35222 1-781, HaloTag NanoBRET 618 Ligand bound in the assay).
T2 construct: Transfected into HEK293 cells for the NanoBRET assay; also called beta-catenin HaloTag NanoBRET construct; not shown: HaloTag
T2 sequence (looked up): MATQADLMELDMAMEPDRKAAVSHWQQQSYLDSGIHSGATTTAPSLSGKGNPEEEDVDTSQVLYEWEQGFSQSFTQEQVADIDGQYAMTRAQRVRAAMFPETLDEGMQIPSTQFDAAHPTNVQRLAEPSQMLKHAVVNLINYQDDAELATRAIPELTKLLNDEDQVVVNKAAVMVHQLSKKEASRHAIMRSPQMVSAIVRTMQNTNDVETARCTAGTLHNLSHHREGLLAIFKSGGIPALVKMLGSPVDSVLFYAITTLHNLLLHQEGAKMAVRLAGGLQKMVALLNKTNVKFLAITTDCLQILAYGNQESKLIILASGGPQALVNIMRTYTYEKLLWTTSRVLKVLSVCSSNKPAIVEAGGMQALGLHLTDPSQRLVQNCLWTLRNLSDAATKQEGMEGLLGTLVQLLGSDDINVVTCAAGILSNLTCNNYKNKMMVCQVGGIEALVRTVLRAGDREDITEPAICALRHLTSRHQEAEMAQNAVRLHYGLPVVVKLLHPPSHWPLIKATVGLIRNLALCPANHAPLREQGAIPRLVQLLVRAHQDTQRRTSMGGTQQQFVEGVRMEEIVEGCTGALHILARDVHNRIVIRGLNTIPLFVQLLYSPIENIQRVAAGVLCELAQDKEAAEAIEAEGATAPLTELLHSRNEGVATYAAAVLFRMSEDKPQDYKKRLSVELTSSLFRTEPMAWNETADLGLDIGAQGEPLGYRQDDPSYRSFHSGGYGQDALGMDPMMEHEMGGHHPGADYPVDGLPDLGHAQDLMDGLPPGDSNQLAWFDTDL
Kind of assay: NanoBRET Abs IC50 in HEK293 cells; B-cat-Halo, competitor TCF4-Luc. In general terms: BRET reads energy transfer from a luciferase to a nearby fluorophore.

The target in assay [2] is T3, full-length beta-Catenin (Uniprot ID P35222) (Homo sapiens (Human), UniProt P35222 1-781).
T3 construct: also called bCat; B-Catenin
T3 sequence: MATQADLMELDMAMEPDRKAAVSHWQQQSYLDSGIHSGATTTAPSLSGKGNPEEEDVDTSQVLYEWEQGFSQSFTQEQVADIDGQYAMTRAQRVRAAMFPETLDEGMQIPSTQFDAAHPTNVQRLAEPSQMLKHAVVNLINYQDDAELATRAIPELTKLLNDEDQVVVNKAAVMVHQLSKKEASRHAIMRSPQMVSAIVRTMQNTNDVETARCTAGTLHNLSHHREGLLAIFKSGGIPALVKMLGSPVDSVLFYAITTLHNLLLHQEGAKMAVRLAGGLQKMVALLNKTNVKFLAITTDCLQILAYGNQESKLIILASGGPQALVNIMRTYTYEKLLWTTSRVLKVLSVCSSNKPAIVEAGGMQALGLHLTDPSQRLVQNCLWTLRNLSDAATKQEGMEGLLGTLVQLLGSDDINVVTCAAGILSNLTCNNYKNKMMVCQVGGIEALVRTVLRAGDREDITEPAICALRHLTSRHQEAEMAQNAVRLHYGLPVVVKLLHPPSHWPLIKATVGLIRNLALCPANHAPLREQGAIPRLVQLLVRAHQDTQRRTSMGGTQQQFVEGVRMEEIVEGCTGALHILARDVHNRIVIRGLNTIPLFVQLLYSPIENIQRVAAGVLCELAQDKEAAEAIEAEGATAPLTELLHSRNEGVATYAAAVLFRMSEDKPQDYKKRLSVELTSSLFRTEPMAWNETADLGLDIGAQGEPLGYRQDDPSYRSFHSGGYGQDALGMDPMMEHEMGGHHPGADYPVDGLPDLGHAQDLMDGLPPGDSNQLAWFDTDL
The experiment in a line: fluorescence polarization competition; full-length beta-catenin, competitor 5FAM-TCF4(10-53) probe. The essentials:
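Fluorescence polarization was read in duplicate after the plate sat 60 minutes at 20° C. shielded from light. Values come from fitting to a 1:1 binding model with hill slope.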
A general note: Polarisation of emitted light reports the rotation of a fluorescent probe.

For assay [3], the target named is T4, beta-catenin in DLD1 TCF/LEF luciferase reporter cells (UniProt P35222 1-781).
T4 sequence (looked up): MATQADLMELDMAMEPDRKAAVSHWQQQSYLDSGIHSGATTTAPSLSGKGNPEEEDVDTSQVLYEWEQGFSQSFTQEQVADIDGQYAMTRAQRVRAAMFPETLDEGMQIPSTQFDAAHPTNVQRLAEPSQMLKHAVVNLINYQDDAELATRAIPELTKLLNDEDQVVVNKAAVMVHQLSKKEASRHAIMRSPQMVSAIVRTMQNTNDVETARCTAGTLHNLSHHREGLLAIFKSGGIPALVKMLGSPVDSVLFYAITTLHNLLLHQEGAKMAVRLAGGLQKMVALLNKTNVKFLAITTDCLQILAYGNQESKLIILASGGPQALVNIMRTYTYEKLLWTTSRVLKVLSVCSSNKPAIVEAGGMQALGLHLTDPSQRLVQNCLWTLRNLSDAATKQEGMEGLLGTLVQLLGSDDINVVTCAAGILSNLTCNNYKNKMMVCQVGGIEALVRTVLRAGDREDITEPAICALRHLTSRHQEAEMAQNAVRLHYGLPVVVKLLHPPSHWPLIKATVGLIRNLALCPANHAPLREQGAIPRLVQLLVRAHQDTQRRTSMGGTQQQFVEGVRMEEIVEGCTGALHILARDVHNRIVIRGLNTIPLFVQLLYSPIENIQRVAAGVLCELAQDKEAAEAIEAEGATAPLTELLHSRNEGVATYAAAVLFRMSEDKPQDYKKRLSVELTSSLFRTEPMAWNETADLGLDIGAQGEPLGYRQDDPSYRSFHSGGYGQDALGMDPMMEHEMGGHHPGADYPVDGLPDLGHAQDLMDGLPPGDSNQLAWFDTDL
Kind of assay: cell-based or functional assay. This is another data set of the same source.

B1: I-996 (peptide)
peptide: Ac-[αAllylPro]D[tBuAla][B5(3)]D[TfeGA]AAF[hSer][S8][Phe(2-Cl)][Bta]Q-NH2
modifications: staple 1-4, 4-11
Turning to B1, in assay [1], the “DLD1 reporter assay Abs IC50” value was 10.8 µM.

B2: I-749 (peptide)
peptide: XDLXDEAAFNXFXT
modifications: not fully specified; N-terminal Ac; C-terminal NH2; PL3 at 1, B5 at 4, S8 at 11, BztA at 13; stapled PL3-B5 and B5-S8 by olefin metathesis
notes: Stapled peptide; also called Ac-PL3-Asp-Leu-B5-Asp-Glu-Ala-Ala-Phe-Asn-S8-Phe-BztA-Thr-NH2
Usually IC50 stands for the midpoint of a concentration-inhibition curve. High values mean weaker potency in that assay, low ones greater potency in that assay. On to B2, for which the IC50 was found to be 9 µM with B-cat-Halo and 40 nM in assay [2].

B3: I-2372 (peptide)
peptide: Ac-[αAllylPro]D[tBuAla][B5(3)]D[TriAzDap](CH2CMe2CO2H)AAFL[PyrS2″][Phe(2-CF3)][Bta]S-NH2
modifications: staple 1-4, 4-11
With B3, the “DLD1 4% Abs IC50” value in assay [3] is 2.1 µM.
